From patent publication US20170002055A1, “Novel peptides and combination of peptides for use in immunotherapy against ovarian cancer and other cancers” (immatics biotechnologies GmbH, priority 2015, published 2017)

The substances below were run against HLA-A*02:01 (Homo sapiens, UniProt P04439, D140Y/D185E/D98H/E176V/E277Q/G131W/G231S/I119V/I121R/I166T/I218V/L300P/L318F/N151K/N90K/P208A/P217A/Q86G/Q94H/R138H/R169H/T345S) (assay: MHC binding assay (UV-ligand exchange, β2m ELISA, peptide exchange yield)). Details: MHC class I binding score; binding to HLA-A*02:01 ranged by peptide exchange yield (UV-ligand exchange, β2m ELISA).
Source text: Candidate peptides for T cell based therapies according to the present invention were further tested for their MHC binding capacity (affinity). The individual peptide-MHC complexes were produced by UV-ligand exchange, where a UV-sensitive peptide is cleaved upon UV-irradiation, and exchanged with the peptide of interest as analyzed. Only peptide candidates that can effectively bind and stabilize the peptide-receptive MHC molecules prevent dissociation of the MHC complexes. To determine the yield of the exchange reaction, an ELISA was performed based on the detection of the light chain (β2m) of stabilized MHC complexes. The assay was performed as generally described in Rodenko et al. (Rodenko et al., 2006).
96 well MAXISorp plates (NUNC) were coated over night with 2 ug/ml streptavidin in PBS at room temperature, washed 4× and blocked for 1h at 37° C. in 2% BSA containing blocking buffer. […] Peptide-MHC monomers of the UV-exchange reaction were diluted 100 fold in blocking buffer. Samples were incubated for 1h at 37° C., washed four times, incubated with 2 ug/ml HRP conjugated anti-β2m for 1h at 37° C., washed again and detected with TMB solution that is stopped with […]. Absorption was measured at 450 nm. Candidate peptides that show a high exchange yield (preferably higher than 50%, most preferred higher than 75%) are generally preferred for a generation and production of antibodies or fragments thereof, and/or T cell receptors or fragments thereof, as they show sufficient avidity to the MHC molecules and prevent dissociation of the MHC complexes.

| Peptide exchange | Substance |
| --- | --- |
| “+++” (≧50 = +++) | 1 (SLMEPPAVLLL; listed as Homo sapiens) [compound 1] |
| “++++” (≧75% = ++++) | 4 (GIMEHITKI; listed as Homo sapiens) [compound 4] |
| “+++” (≧50 = +++) | 6 (VLVSDGVHSV; listed as Homo sapiens) [compound 6] |
| “++” (≧20% = ++) | 9 (GAAKDLPGV; listed as Homo sapiens) [compound 9] |
| “++++” (≧75% = ++++) | 10 (FLATFPLAAV; listed as Homo sapiens) [compound 10] |
| “+++” (≧50 = +++) | 12 (SLWPDPMEV; listed as Homo sapiens) [compound 12] |
| “+++” (≧50 = +++) | 13 (YLMDESLNL; listed as Homo sapiens) [compound 13] |
| “+++” (≧50 = +++) | 14 (AAYGGLNEKSFV; listed as Homo sapiens) [compound 14] |
| “++” (≧20% = ++) | 15 (VLLTFKIFL; listed as Homo sapiens) [compound 15] |
| “+++” (≧50 = +++) | 16 (VLFQGQASL; listed as Homo sapiens) [compound 16] |
| “++” (≧20% = ++) | 18 (YLVAKLVEV; listed as Homo sapiens) [compound 18] |
| “+++” (≧50 = +++) | 20 (RMIEYFIDV; listed as Homo sapiens) [compound 20] |
| “++” (≧20% = ++) | 21 (VLDELDMEL; listed as Homo sapiens) [compound 21] |
| “+++” (≧50 = +++) | 22 (IMEENPGIFAV; listed as Homo sapiens) [compound 22] |
| “+++” (≧50 = +++) | 23 (VLLDDIFAQL; listed as Homo sapiens) [compound 23] |
| “++” (≧20% = ++) | 24 (SLSDGLEEV; listed as Homo sapiens) [compound 24] |
| “+++” (≧50 = +++) | 25 (FLPDEPYIKV; listed as Homo sapiens) [compound 25] |
| “+++” (≧50 = +++) | 26 (ALLELAEEL; listed as Homo sapiens) [compound 26] |
| “+++” (≧50 = +++) | 27 (ILADIVISA; listed as Homo sapiens) [compound 27] |
| “+++” (≧50 = +++) | 28 (QLLDETSAITL; listed as Homo sapiens) [compound 28] |
| “+++” (≧50 = +++) | 29 (KMLGIPISNILMV; listed as Homo sapiens) [compound 29] |
| “+++” (≧50 = +++) | 30 (LILDWVPYI; listed as Homo sapiens) [compound 30] |
| “++” (≧20% = ++) | 31 (YLAPELFVNV; listed as Homo sapiens) [compound 31] |
| “++” (≧20% = ++) | 32 (KLDDLTQDLTV; listed as Homo sapiens) [compound 32] |
| “++” (≧20% = ++) | 33 (VLLSLLEKV; listed as Homo sapiens) [compound 33] |

| Peptide exchange | Substance |
| --- | --- |
| “+++” (≧50 = +++) | 34 (ILVEADSLWVV; listed as Homo sapiens) [compound 34] |
| “+++” (≧50 = +++) | 35 (KINDTIYEV; listed as Homo sapiens) [compound 35] |
| “+++” (≧50 = +++) | 39 (SVAPNLPAV; listed as Homo sapiens) [compound 39] |
| “+++” (≧50 = +++) | 41 (SLMPHIPGL; listed as Homo sapiens) [compound 41] |
| “+++” (≧50 = +++) | 42 (VLLQKIVSA; listed as Homo sapiens) [compound 42] |
| “++” (≧20% = ++) | 43 (VLSSLEINI; listed as Homo sapiens) [compound 43] |
| “++” (≧20% = ++) | 44 (ILDPISSGFLL; listed as Homo sapiens) [compound 44] |
| “+++” (≧50 = +++) | 45 (SLWQDIPDV; listed as Homo sapiens) [compound 45] |
| “+++” (≧50 = +++) | 46 (ILTEENIHL; listed as Homo sapiens) [compound 46] |
| “++” (≧20% = ++) | 47 (ILLSVPLLVV; listed as Homo sapiens) [compound 47] |
| “+++” (≧50 = +++) | 50 (SLSELEALM; listed as Homo sapiens) [compound 50] |
| “++++” (≧75% = ++++) | 51 (LLPDLEFYV; listed as Homo sapiens) [compound 51] |
| “++++” (≧75% = ++++) | 52 (FLLAHGLGFLL; listed as Homo sapiens) [compound 52] |
| “++++” (≧75% = ++++) | 53 (KMIETDILQKV; listed as Homo sapiens) [compound 53] |
| “+++” (≧50 = +++) | 54 (SLLEQGKEPWMV; listed as Homo sapiens) [compound 54] |
| “++++” (≧75% = ++++) | 55 (SLLDLETLSL; listed as Homo sapiens) [compound 55] |
| “+++” (≧50 = +++) | 57 (TLAELQPPVQL; listed as Homo sapiens) [compound 57] |
| “+++” (≧50 = +++) | 59 (IMEDIILTL; listed as Homo sapiens) [compound 59] |
| “++++” (≧75% = ++++) | 62 (VLLDVSAGQLLM; listed as Homo sapiens) [compound 62] |
| “++” (≧20% = ++) | 63 (YLLPSGGSVTL; listed as Homo sapiens) [compound 63] |
| “++” (≧20% = ++) | 64 (YAAPGGLIGV; listed as Homo sapiens) [compound 64] |
| “+++” (≧50 = +++) | 66 (FLDENIGGVAV; listed as Homo sapiens) [compound 66] |
| “+++” (≧50 = +++) | 67 (TLLAEALVTV; listed as Homo sapiens) [compound 67] |
| “++++” (≧75% = ++++) | 68 (SLMELPRGLFL; listed as Homo sapiens) [compound 68] |
| “+++” (≧50 = +++) | 69 (FQLDPSSGVLVTV; listed as Homo sapiens) [compound 69] |

| Peptide exchange | Substance |
| --- | --- |
| “+++” (≧50 = +++) | 70 (GLLDYPVGV; listed as Homo sapiens) [compound 70] |
| “+++” (≧50 = +++) | 71 (GILARIASV; listed as Homo sapiens) [compound 71] |
| “+++” (≧50 = +++) | 72 (SLLELDGINL; listed as Homo sapiens) [compound 72] |
| “+++” (≧50 = +++) | 73 (NIFDLQIYV; listed as Homo sapiens) [compound 73] |
| “+++” (≧50 = +++) | 74 (ALLDPEVLSIFV; listed as Homo sapiens) [compound 74] |
| “+++” (≧50 = +++) | 75 (GLLEVMVNL; listed as Homo sapiens) [compound 75] |
| “+++” (≧50 = +++) | 76 (ILIDSIYKV; listed as Homo sapiens) [compound 76] |
| “++++” (≧75% = ++++) | 77 (ILVEADGAWVV; listed as Homo sapiens) [compound 77] |
| “+++” (≧50 = +++) | 78 (SLFSSLEPQIQPV; listed as Homo sapiens) [compound 78] |
| “++” (≧20% = ++) | 80 (FLYDNLVESL; listed as Homo sapiens) [compound 80] |
| “++” (≧20% = ++) | 81 (FLFSQLQYL; listed as Homo sapiens) [compound 81] |
| “+++” (≧50 = +++) | 82 (FLSSVTYNL; listed as Homo sapiens) [compound 82] |
| “+++” (≧50 = +++) | 83 (ILAPTVMMI; listed as Homo sapiens) [compound 83] |
| “++” (≧20% = ++) | 84 (VTFGEKLLGV; listed as Homo sapiens) [compound 84] |
| “+++” (≧50 = +++) | 85 (KMSELRVTL; listed as Homo sapiens) [compound 85] |
| “+++” (≧50 = +++) | 86 (NLIGKIENV; listed as Homo sapiens) [compound 86] |
| “++” (≧20% = ++) | 87 (ALPEAPAPLLPHIT; listed as Homo sapiens) [compound 87] |
| “+++” (≧50 = +++) | 88 (FLLVGDLMAV; listed as Homo sapiens) [compound 88] |
| “++++” (≧75% = ++++) | 89 (YILPTETIYV; listed as Homo sapiens) [compound 89] |
| “+++” (≧50 = +++) | 90 (TLLQIIETV; listed as Homo sapiens) [compound 90] |
| “++++” (≧75% = ++++) | 91 (IMQDFPAEIFL; listed as Homo sapiens) [compound 91] |
| “++” (≧20% = ++) | 92 (YLIPFTGIVGL; listed as Homo sapiens) [compound 92] |
| “++” (≧20% = ++) | 93 (LLQAIKLYL; listed as Homo sapiens) [compound 93] |
